From the supplement of paper PMC7877785
± gives the uncertainty stated by the source.

Assay: self-splicing fitness, log relative to wild type (ln ratio); higher = more splicing; Tetrahymena group I intron in knt gene, E. coli kanamycin selection, DiMSum; sequences stand for … in CUCUCU…GGAGGGAAAAGUUAUCAGGCAUGCACCUGGUAGCUAGUCUUUAAACCAAUAGAUUGCAUCGGUUUAAAAGGCAAGACCGUCAAAUUGCGGGAAAGGGGUCAACAGCCGUUCAGUACCAAGUCUCAGGGGAAACUUUGAGAUGGCCUUGCAAAGGGUAUGGUAAUAAGCUGACGGACAUGGUCCUAACCACGCAGCCAAGUCCUAAGUCAACAGAUCUUCUGUUGAUAUGGAUGCAGUUCACAGACUAAAUGUCGGUCGGGGAAGAUGUAUUCUUCUCAUAAGAUAUAGUCGGACCUCUCCUUAAUGGGAGCUAGCGGAUGAAGUGAUGCAACACUGGAGCCGCUGGGAACUAAUUUGUAUGCGAAAGUAUAUUGAUUAGUUUUGGAGUACUCGUGGUCG
Procedure, shortened: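 Pooled colonies went to amplicon sequencing on an Illumina HiSeq 2500 after six replicate transformations. The plates were LB agar with 100 μg/mL carbenicillin, 50 μM IPTG and 0.2% rhamnose, with or without 25 μg/mL kanamycin, incubated overnight at 37°C or 30°C. The E. coli BL21(DE3) library had all eight P1ex-region intron nucleotides randomised, the intron placed in the knt kanamycin-resistance gene on pET-22b(+). DiMSum fitness is the error-weighted combination of replicate fold changes, kanamycin against none, normalised to wild type.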

GCUUAGCAAUAUUACGAGGA
self-splicing fitness (ln) (30 °C): -0.769 ± 0.11
self-splicing fitness (ln) (37 °C): -0.781 ± 0.1

GCUUAGCAAUAUUACGAUAU
self-splicing fitness (ln) (30 °C): -1.67 ± 0.18
self-splicing fitness (ln) (37 °C): -0.39 ± 0.17

GCUUAGCAAUAUUACGAUUA
self-splicing fitness (ln) (30 °C): -1.01 ± 0.11
self-splicing fitness (ln) (37 °C): -1.03 ± 0.1

GCUUAGCAAUAUUACGCAGA
self-splicing fitness (ln) (30 °C): -2.62 ± 0.22
self-splicing fitness (ln) (37 °C): -3.24 ± 0.43

GCUUAGCAAUAUUACGCGAU
self-splicing fitness (ln) (30 °C): -3.45 ± 0.34
self-splicing fitness (ln) (37 °C): -1.69 ± 0.29

GCUUAGCAAUAUUACGCGCA
self-splicing fitness (ln) (30 °C): -1.37 ± 0.16
self-splicing fitness (ln) (37 °C): 0.00629 ± 0.17

GCUUAGCAAUAUUACGCGGA
self-splicing fitness (ln) (30 °C): -1.32 ± 0.071
self-splicing fitness (ln) (37 °C): -0.345 ± 0.071

GCUUAGCAAUAUUACGCUCA
self-splicing fitness (ln) (30 °C): -1.34 ± 0.23
self-splicing fitness (ln) (37 °C): -0.203 ± 0.22

GCUUAGCAAUAUUACGCUGG
self-splicing fitness (ln) (37 °C): -2.13 ± 0.3

GCUUAGCAAUAUUACGGCUC
self-splicing fitness (ln) (30 °C): -0.359 ± 0.098
self-splicing fitness (ln) (37 °C): 0.0516 ± 0.12

GCUUAGCAAUAUUACGGGAA
self-splicing fitness (ln) (30 °C): -0.679 ± 0.12
self-splicing fitness (ln) (37 °C): 0.196 ± 0.11

GCUUAGCAAUAUUACGGGCA
self-splicing fitness (ln) (30 °C): -2.24 ± 0.27
self-splicing fitness (ln) (37 °C): -0.778 ± 0.19

GCUUAGCAAUAUUACGGUGA
self-splicing fitness (ln) (30 °C): -1.46 ± 0.092
self-splicing fitness (ln) (37 °C): -1.75 ± 0.1

GCUUAGCAAUAUUACGUAAA
self-splicing fitness (ln) (30 °C): -0.47 ± 0.084
self-splicing fitness (ln) (37 °C): 0.317 ± 0.1

GCUUAGCAAUAUUACGUCCG
self-splicing fitness (ln) (30 °C): -1.68 ± 0.19
self-splicing fitness (ln) (37 °C): -1.43 ± 0.24

GCUUAGCAAUAUUACGUGAC
self-splicing fitness (ln) (30 °C): -1.54 ± 0.09
self-splicing fitness (ln) (37 °C): -1.08 ± 0.13

GCUUAGCAAUAUUACGUGUC
self-splicing fitness (ln) (30 °C): -1.23 ± 0.14
self-splicing fitness (ln) (37 °C): -0.348 ± 0.14

GCUUAGCAAUAUUACGUUGU
self-splicing fitness (ln) (30 °C): -1.5 ± 0.066
self-splicing fitness (ln) (37 °C): -0.844 ± 0.093

GGAAAGCAAUAUUACGACGG
self-splicing fitness (ln) (30 °C): -4.1 ± 0.39
self-splicing fitness (ln) (37 °C): -2.12 ± 0.4

GGAAAGCAAUAUUACGACUU
self-splicing fitness (ln) (30 °C): -0.349 ± 0.1
self-splicing fitness (ln) (37 °C): -0.0565 ± 0.11

GGAAAGCAAUAUUACGAGAG
self-splicing fitness (ln) (30 °C): -4.25 ± 0.26
self-splicing fitness (ln) (37 °C): -0.533 ± 0.1

GGAAAGCAAUAUUACGAGGU
self-splicing fitness (ln) (30 °C): -3.65 ± 0.17
self-splicing fitness (ln) (37 °C): -2.87 ± 0.25

GGAAAGCAAUAUUACGAUAC
self-splicing fitness (ln) (30 °C): 0.424 ± 0.17
self-splicing fitness (ln) (37 °C): -0.511 ± 0.35

GGAAAGCAAUAUUACGAUCC
self-splicing fitness (ln) (30 °C): -3.2 ± 0.39

GGAAAGCAAUAUUACGAUCG
self-splicing fitness (ln) (30 °C): -0.227 ± 0.084
self-splicing fitness (ln) (37 °C): -0.145 ± 0.12

GGAAAGCAAUAUUACGAUGU
self-splicing fitness (ln) (30 °C): -1.69 ± 0.094
self-splicing fitness (ln) (37 °C): -0.262 ± 0.13

GGAAAGCAAUAUUACGCACA
self-splicing fitness (ln) (30 °C): -0.416 ± 0.091
self-splicing fitness (ln) (37 °C): 0.0226 ± 0.14

GGAAAGCAAUAUUACGCCGU
self-splicing fitness (ln) (30 °C): -1.5 ± 0.26
self-splicing fitness (ln) (37 °C): 0.351 ± 0.28

GGAAAGCAAUAUUACGCGCC
self-splicing fitness (ln) (30 °C): -3.03 ± 0.49
self-splicing fitness (ln) (37 °C): -2.17 ± 0.42

GGAAAGCAAUAUUACGCGGG
self-splicing fitness (ln) (30 °C): -2.64 ± 0.18
self-splicing fitness (ln) (37 °C): -1.5 ± 0.18

GGAAAGCAAUAUUACGCGUC
self-splicing fitness (ln) (30 °C): -3.58 ± 0.22
self-splicing fitness (ln) (37 °C): -2.89 ± 0.23

GGAAAGCAAUAUUACGCUCG
self-splicing fitness (ln) (30 °C): -0.352 ± 0.15
self-splicing fitness (ln) (37 °C): 0.329 ± 0.17

GGAAAGCAAUAUUACGGAAA
self-splicing fitness (ln) (30 °C): -2.04 ± 0.22
self-splicing fitness (ln) (37 °C): -1.25 ± 0.24

GGAAAGCAAUAUUACGGAAG
self-splicing fitness (ln) (30 °C): -4.32 ± 0.22
self-splicing fitness (ln) (37 °C): -1.93 ± 0.15

GGAAAGCAAUAUUACGGCCU
self-splicing fitness (ln) (30 °C): -1.71 ± 0.15
self-splicing fitness (ln) (37 °C): -0.809 ± 0.21

GGAAAGCAAUAUUACGGCUG
self-splicing fitness (ln) (30 °C): -0.471 ± 0.12
self-splicing fitness (ln) (37 °C): -0.348 ± 0.17

GGAAAGCAAUAUUACGGGCC
self-splicing fitness (ln) (30 °C): -2.41 ± 0.23
self-splicing fitness (ln) (37 °C): -2.16 ± 0.32

GGAAAGCAAUAUUACGGGGU
self-splicing fitness (ln) (30 °C): -3.1 ± 0.22
self-splicing fitness (ln) (37 °C): -3 ± 0.28
